Experimental data as given in US9260754B2, “Connexin mutation detection for lymphatic variation and disease” (University of Pittsburgh—Of the Commonwealth System of …, priority 2010, dated 2016).
Where no end group is shown, it is not given here.

Key:
[1] = tested on: hTERTs (telomerase-transfected human dermal lymphatic endothelial cells); assay: Intercellular communication assay (parachute Calcein AM dye transfer) with gap junction inhibitors; type: cell-based; conditions: GRA 10 μM, Gap 27 500 μM, 40 min, versus control, p<0.05
Protocol: To characterize intercellular gap junction communication over time between seeded donor cells and an acceptor monolayer, LECs were loaded with 2.5 μM Calcein-AM (Invitrogen) in (PBS) for 30 min at 37° C. Excessive dye was removed by rinsing three times in PBS before dislodgment using 500 μl 0.25% Trypsin-EDTA. Detached cells were dispersed with a pipette and 10 μl cell suspensions was added to a confluent LEC monolayer in MCDB-131 supplemented with 25 mM HEPES. To ensure attachment of dye loaded suspended cells, the dish was incubated at 37° C. for 40 min prior to syringe filtration of the medium to remove floating cells that would interfere with subsequent imaging. The dish was thereafter mounted in a temperature controlled open chamber microincubator (Harvard Apparatus) on an inverted Olympus IX81 microscope. […] The Gap27 was handled similarly to GRA and a DMSO control was measured on the same day. Significance was assigned at p<0.05 and treatments were analyzed as independent samples using a Student's t-test. […]
Calcein AM allows cell permeable loading, and with a molecular weight of 662, is frequently used in gap junction communication studies. […] Replicate blinded experiments were performed on at least 2 separate days, and quantitation of dye spread was determined in an automated manner using Metamorph and standardized regions of interest with auto-thresholding. […]

HeLa cell pairs = assay: Dual whole cell patch clamp recording of coupling current in transfected HeLa cell pairs; type: cell-based, human
Protocol: Coupling currents were recorded using simultaneous double whole-cell patch clamp recordings from isolated pairs of cells that were in contact with one another (determined visually) as previously described. Briefly, the pipette solution consisted of (mM): 130 CsCl, 10 EGTA, 10 HEPES, 3 Mg-ATP, 2 Na-ATP, 0.5 CaCl2, pH 7.3. The culture was bathed in a solution consisting of (mM): 140 NaCl, 5 HEPES, 5 glucose, 4 KCl, 2 CsCl, 2 CaCl2, 2 pyruvate, 1 BaCl2, pH 7.3. Transfected HeLas undergo electrophysiologic analysis in a blinded manner. Pairs of cells were chosen for study only if both expressed the GFP marker indicative of successful transfections; both stable and transient transfectants were analyzed. Patch pipettes were fabricated from borosilicate glass, and coupling currents were amplified by Axopatch 200A amplifiers, filtered at 1 KHz, and digitized at 5 KHz for subsequent analysis using pClamp software (Axon Instruments/Molecular Devices; Sunnyvale, Calif.). All experiments were carried out at room temperature (22° C.). Coupling current was quantified by measuring the peak current recorded in the pair when the neighboring cell received a 100 mV step membrane potential change (in both positive and negative directions). Step changes in membrane potential were delivered to each cell in the pair in sequence and the average current recorded in the neighboring cell was determined and divided by 100 to generate coupling current expressed in pA/mV. Means±SEM were calculated and statistical significance using a one-way analysis of variance and Tukey's post-hoc test, p<0.05.
Coupling current is quantified by measuring the peak current recorded in the pair when the neighboring cell receives a 100 mV step membrane potential change (in both positive and negative directions). Step changes in membrane potential are delivered to each cell in the pair in sequence and the average current recorded in the neighboring cell determined and divided by 100 to generate coupling current expressed in pA/mV (FIG. 6C). Replicate measurements (n=3-6) are made on at least two different days. […] The untransfected HeLa cell pairs also show minimal channel function, as predicted.
Electrophysiologic characteristics of GJIC were measured between HeLa cell pairs transfected with the mutant constructs (as indicated by EGFP expression) by dual whole cell patch clamp recording. All experiments were carried out in a blinded manner. Coupling current is quantified by measuring the peak current recorded in the pair when the neighboring cell receives a 100 mV step membrane potential change (in both positive and negative directions). Step changes in membrane potential are delivered to each cell in the pair in sequence and the average current recorded in the neighboring cell determined and divided by 100 to generate coupling current expressed in pA/mV. Untransfected HeLa cells and cells transfected with empty vector (i.e., no hCx47) were used as additional controls.

HeLa cells [2] = assay: Cx47 gap junction plaque formation by immunofluorescent confocal microscopy in transfected HeLa cells; type: cell-based, human; conditions: near confluent transfected HeLa cells
Protocol: Human neonatal foreskin was collected anonymously as discarded tissue according to an IRB protocol. Samples were collected immediately after harvest in DMEM, then fixed in 2% paraformaldehyde for 2 hrs, then stored in 30% sucrose in 1×PBS overnight for cryosectioning, and sectioned in 6 μm slices at −30° C. Transfected (stable and transient) and untransfected HeLa cells were grown to near confluence in coverslip bottom dishes. All cells were rinsed with PBS and fixed with 2% paraformaldehyde. Subsequently, tissue and HeLa cells were processed similarly: following permeabilization with 0.1% Triton X, cells were blocked with 2% BSA. A human Cx47 antibody (ab) was obtained from the S. Scherer laboratory: polyclonal rabbit against amino acids 344-399 in the cytoplasmic C-terminal tail; we used human CNS tissue and positive oligodendrocyte staining as a positive control and primary antibody delete and rabbit IgG as negative controls (data not shown). Cx47 ab was diluted in 0.5% BSA in a 1:200 ratio, applied to cells and incubated at RT for one hour. Mouse monoclonal Proxl (Chemicon) was used as a lymphatic marker for the foreskin samples. Cells were incubated with the secondary abs (Donkey Anti-Rabbit Cy5 and Donkey Anti-Mouse Cy3; Invitrogen) for one hour at RT and washed; Draq5 was used as a nuclear marker. HeLa images were acquired with an inverted Olympus Fluoview 1000 Confocal Microscope 100× oil, 1.4 NA objective. Foreskin images were acquired on a Zeiss Meta LSM 510 inverted confocal microscope with 40× oil, 1.3 N.A. objective. LECs (primary human microvascular adult dermal lymphatics; Lonza) were grown in fibronectin coated coverslip bottom MatTeks dishes in EGM™-2 MV—Microvascular Endothelial Cell Medium-2 (Lonza Inc.) to approximately 80% confluence, and prepared similarly but a commercially available (AbCam) Cx47 ab, polyclonal rabbit against amino acids 41-70 in the human sequence was used along with Drag 5 nuclear marker and phalloidin to mark f-actin.
Immunofluorescence microscopy determines the presence or absence of Cx47 gap junction plaques when the constructs are transiently expressed in HeLa cells. Cx plaques reflect a physiologic accumulation of Cx channels in the cell membrane between cells (tens to thousands of channels); thus plaques are indicative of normal trafficking and gap junction formation at the cell membrane.
Immunofluorescence microscopy determines the presence or absence of Cx47 gap junction plaques when the constructs are transiently expressed in HeLa cells. A human Cx47 antibody was obtained: polyclonal rabbit against amino acids 344-399 in the cytoplasmic C-terminal tail (Orthmann-Murphy J L, et al. Mol Cell Neurosci 2007; 34:629-41); we used human CNS tissue and positive oligodendrocyte staining as a positive control and primary antibody delete as a negative control (data not shown). Cultured HeLa cells were routinely fixed and stained with the primary antibodies against Cx47, along with a nuclear marker, and transfected cells were identified by their EGFP signal. Plaques were imaged using an Olympus Fluoview 1000 confocal microscope, 100× oil objective.

HeLa cells [3] = assay: Wound assay (proliferation/migration) in confluent transfected HeLa cells; type: cell-based, human; conditions: fraction of original wound in HeLa cell monolayer after 24 hrs; mean ± SEM
Protocol: The wound assay, a measure of proliferation/migration, was performed using differential interference contrast time lapse of over 24 hrs using confluent transfected HeLa cells. Analysis was done using TScratch (Geback T, et al. TScratch: a novel and simple software tool for automated analysis of monolayer wound healing assays. Biotechniques 2009; 46:265-74), mean±SEM of at least 10 positions along wound; the scrape width was normalized to the first image for each position. In all cases a two tailed student's T test was applied with p<0.05 considered significant.

[4] = tested on: Adult human dermal lymphatic microvascular endothelial cells; assay: Lucifer yellow microinjection dye spread in lymphatic endothelial cells expressing mutant constructs; type: cell-based
Protocol: Adult human dermal lymphatic microvascular endothelial cells were cultured in EGM™-2 MV (both from Lonza). Cells were electroporated with 2 μg cDNA of the EGFP tagged mutant constructs and then selected with G418 as described above. Cells were microinjected using a combination (1:4 ratio) of 70 kd Texas Red dextran (Invitrogen) to mark injected cell for reference and Lucifer yellow, a known gap junction permeable dye (m.w. 443, −2 charge), to assess change in extent of spread (Abbaci M, et al. Advantages and limitations of commonly used methods to assay the molecular permeability of gap junctional intercellular communication. Biotechniques 2008; 45:33-52, 6-62). All cells were injected using constant conditions and cells were scored for dye spread in tiers from reference cell, using constant exposure time and thresholding, and were imaged using a Nikon TE2000 with temperature controlled motorized stage and Qlmaging Retiga CCD camera. Images were obtained using differential interference contrast (DIC) and standard filters for EGFP (identify expression of mutation), DAPI (for Lucifer yellow) and dsRed (for dextran) preinjection, immediately post-injection and 2 min after injection. Results were calculated as mean SEM and statistical significance was determined in comparison to WT-hCx47-EGFP expressing cells using a Mann-Whitney Test.

Molecule: CC1(C)[C@@H](O)CC[C@]2(C)[C@H]3C(=O)C=C4[C@@H]5C[C@@](C)(C(=O)O)CC[C@]5(C)CC[C@@]4(C)[C@]3(C)CC[C@@H]12 [GRA, 18α-glycyrrhetinic acid]
- GJIC by dye transfer in response to gap junction inhibitors [1]: significantly reduced

Molecule: SRPTEKTIFII [Gap 27, Synthetic connexin-mimetic peptide targeted to extracellular loop 2 of Cx43]
- GJIC by dye transfer in response to gap junction inhibitors [1]: significantly reduced

B1: P381S: Cx47 missense mutant P381S (1141C>T), C terminal, construct expressed in HeLa cells or LECs (protein, listed as Homo sapiens)
chain: MSWSFLTRLLEEIHNHSTFVGKVWLTVLVVFRIVLTAVGGEAIYSDEQAKFTCNTRQPGCDNVCYDAFAPLSHVRFWVFQIVVISTPSVMYLGYAVHRLARASEQERRRALRRRPGPRRAPRAHLPPPHAGWPEPADLGEEEPMLGLGEEEEEEETGAAEGAGEEAEEAGAEEACTKAVGADGKAAGTPGPTGQHDGRRRIQREGLMRVYVAQLVARAAFEVAFLVGQYLLYGFEVRPFFPCSRQPCPHVVDCFVSRPTEKTVFLLVMYVVSCLCLLLNLCEMAHLGLGSAQDAVRGRRGPPASAPAPAPRPPPCAFPAAAAGLACPPDYSLVVRAAERARAHDQNLANLALQALRDGAAAGDRDRDSSPCVGLPAASRGSPRAGAPASRTGSATSAGTVGEQGRPGTHERPGAKPRAGSEKGSASSRDGKTTVWI
- electrical coupling (HeLa cell pairs; Table 6 (Example 4), HeLa cell pairs, 100 mV step, mean ± SEM): 48.2 pA/mV
- electrical coupling / functional channels in HeLa cell pairs (in words) (HeLa cell pairs; transfected HeLa cell pairs, voltage step protocol −100 to +100 mV): well coupled
- Cx47 plaque formation (in words) (HeLa cells [2]): Cx47 intercellular plaques
- wound assay (HeLa cells [3]): 0.70
- LEC spread ([4]; Dye spread to tiers of LECs after 2 min, Lucifer yellow microinjection, mean ± SEM): 2.26 tiers
- dye transfer of Lucifer yellow after microinjection compared to WT-hCx47-EGFP expressing LECs (in words) ([4]; LECs expressing the mutations): significantly enhanced dye transfer
